B1: Hairpin Ribozyme (parent)
chain: GUCCUCUUUCACGUGCGCGUGAAAGAGAGAAGUGAACCAGAGAAACACACGUUGUGGUAUAUUACCUGGUA

Variants of B1 are the subject of the data set. The data set is described as follows: self-cleavage, relative activity (ratio to wild type); higher = more cleavage; co-transcriptional.
With GUCCUGUUUCACGUGCGCGUGAAAGAGAGAAGUGAACCAGAGAAACACACGUUGUGGUAUAUUACGUGGUA, the self-cleavage was found to be 0.166.
Regarding GUCCUCUUUCACGUGCGCGUGAAAGAGAGAAGUGAACCAGAGAAACACACGUUGUGGUAUAUUACUUGGUU, the self-cleavage amounted to 0.417.
Under GUCCUCUUUCACGUGUGCGUGAAAGAGAGAAGUGAACCAGAGAAACACACGUUGUGGUAUAAUACCUGGUA stands 0.18; under GUCCUCUUUCACGUGCGCGUGAAAUAAAGAAGUGAACCAGAGAAACACACGUUGUGGUAUAUUACCUGGUA, 0.131.
The same measure for GUCCUCUUUCACGUGCGCGUGAAAGAGAGAAGUGAACCAGAGAAACACACGUAGUAGUAUAUUACCUGGUA: 0.0996.
As to GUCCUCUAUCACGUGCGCGUGAAAGAGAGAAGUGAACCAGAGAGACACACGUUGUGGUAUAUUACCUGGUA, the self-cleavage turned out to be 0.173.
Under GUCCUCUUUCACGUGCGUGUGAAAGAGAGAAGUGAAUCAGAGAAACACACGUUGUGGUAUAUUACCUGGUA stands 0.713; under GUCCUCUUUCACGUGCGCUUGAAAGAGAGAAGUGAACCAUAGAAACACACGUUGUGGUAUAUUACCUGGUA, 0.194.
The same measure for GUCCUCUUUCACGUGCGAGUGAAAGAGAGAAGUGAACCAGAGAAACACACGUUGUGGUAGAUUACCUGGUA: 0.732; for GCCCUCUUUCACGUGCGCGUGAAAGAGAGAAGUGAACCAGAGAAACACACUUUGUGGUAUAUUACCUGGUA: 0.172; for GUCCUCUUUCACGUGUGCGUGAAAGAGAGAAGUCAACCAGAGAAACACACGUUGUGGUAUAUUACCUGGUA: 1.53.
The same measure for GUCCUCUUUCACGUGCGCGUGAUAGAGAGAAGUGAACCAGAGAAAGACACGUUGUGGUAUAUUACCUGGUA: 0.0441; for GUCCUCUUUCACUUGCGCGUGAAAGAGAGAAGUGAACCAGAGAAACCCACGUUGUGGUAUAUUACCUGGUA: 0.326; for GUUCUCUUUCACGUGCGCGUGAAAGAGAGAAGUGAACCAGAGAAACACAGGUUGUGGUAUAUUACCUGGUA: 0.174.
Turning to GUCCUCUUUCACGUAUGCGUGAAAGAGAGAAGUGAACCAGAGAAACACACGUUGUGGUAUAUUACCUGGUA, the self-cleavage stood at 1.01.
Under GUCCUCUUCCACGUGCGCGUGAAGGAGAGAAGUGAACCAGAGAAACACACGUUGUGGUAUAUUACCUGGUA stands 0.844; under GUCCUCUUCCACGUGCGCGUGAAAGAGAGAAGUGAACCUGAGAAACACACGUUGUGGUAUAUUACCUGGUA, 0.411.
Under GUCCUCUUUCACGUCCGCGUGAAAGAGACAAGUGAACCAGAGAAACACACGUUGUGGUAUAUUACCUGGUA stands 0.116.
The same measure for GUCCUAUUUCACGUGCGCGUGAAAGAGAGAAGUGAACGAGAGAAACACACGUUGUGGUAUAUUACCUGGUA: 0.149; for GUCCUCUUUCACGUGCGCGUGAAAGAGAGAAGUGAACAAGAGAAACACACGUUGUGGUAUAUUACCUGGAA: 0.165.
For the variant GUCCUCUUUCACGUGCGCGUGAAAGAGAGAAGUGAACCAGAGAAACACACGUUGUGGUAUACAACCUGGUA, the self-cleavage is 0.21.
Under GUCCUCUUUCACGUGCGCGUGUAAGAGAGAAGUGAACCAGAGAAACACACGUUGUGGGAUAUUACCUGGUA stands 0.769; under CUCCUCUUUCACGUGCGCGUGAAAGAGAGAAGUGAACCAGAGAAACACACGUUGUGGUAUAUUACCUGGUG, 0.313.
Under GUCCUUUUUCACGUGCUCGUGAAAGAGAGAAGUGAACCAGAGAAACACACGUUGUGGUAUAUUACCUGGUA stands 0.859; under GUCCUCUUUCACGUGCGCGUGAAAGAGAGAAGUGAACCAGAGAAACACACGUUGGGGUAUAUUAUCUGGUA, 0.0906.
Regarding GUCCUCUUUCACGUGGGCGUGAAAGAGAGAUGUGAACCAGAGAAACACACGUUGUGGUAUAUUACCUGGUA, the self-cleavage was found to be 0.226.
The same measure for GUCCUCUUUCACGUGCGGGUGAGAGAGAGAAGUGAACCAGAGAAACACACGUUGUGGUAUAUUACCUGGUA: 0.84.
The same measure for GUCCUCUUUCACGUGCGCGUGAAAGGGAGAAGUGAACCAGAGAAACACACGUUGUGCUAUAUUACCUGGUA: 0.103; for GUCCUCGUUCACGUGGGCGUGAAAGAGAGAAGUGAACCAGAGAAACACACGUUGUGGUAUAUUACCUGGUA: 0.689; for GUCCUCAUUCACGUGCGCGUGAAAGAGAGAAGUGAACUAGAGAAACACACGUUGUGGUAUAUUACCUGGUA: 0.329.
The same measure for GUCCUCUUUCACGUGCGCGUGAAAGAGAGAAGUGAACCCGAGAAACACACGUUGUGGUAUAUUAGCUGGUA: 0.167.
For the variant GUCCUCUUUCACGUCCGCGUGAAAGAGAGACGUGAACCAGAGAAACACACGUUGUGGUAUAUUACCUGGUA, the self-cleavage amounted to 0.206.
Consider GUCCUCUUUCACGUGCGCGUGAAAGAGAGAAGUGAACCAGAGAAGCACACGUUGUGGUAUAUUCCCUGGUA, for which the self-cleavage stood at 0.216.
Regarding GUCAUCUUUCACGUGCGCGUGAAAGAGAGAAGUGAACCAGAGAAACACGCGUUGUGGUAUAUUACCUGGUA, the self-cleavage came out at 0.157.
The same measure for GUCCUCUUUCACGUGCGCGUGAAAGAGAGAAGUGAACCCGAGCAACACACGUUGUGGUAUAUUACCUGGUA: 0.14.
Under GUCCUCUUUCACGUGCGCGUGAAAGAGAGAAGUGAACCAGAGAAACACCCGUUGUGGUAUAUUACCUGGUA stands 0.161; under GUCCUCUUUCACGUGCGCGUGAAAGAGAGAAGUCAACCAGAGAAACACAGGUUGUGGUAUAUUACCUGGUA, 1.45; under GUCCUCUUUUACGUGCGCGUGAAAGAGAGAAGUGAACCAGAGAAACAGACGUUGUGGUAUAUUACCUGGUA, 0.134.

The values above are taken from the RNAGym collection of RNA variant scans (doi:10.7554/elife.80360).
